Assays:
[1] = target: AhR-ARNT heterodimer (mouse AhR + human ARNT) (Mus musculus / Homo sapiens, UniProt P30561;P27540 P30561:1-805,P27540:1-789); experiment: EMSA; 20 nM TCDD, 2 h 30 C; poly dIdC; ligand dependent; settings: tags: reticulocyte lysate TNT; label: 32P end-label; 5' TCGA overhangs
Experimental: (§1) A complementary pair of synthetic oligonucleotides, 5'-[…]-3' Sequence ID. No. 16 and 5'-TCGAGCTGGGC-CCATTGCGTGATCTAC-3' Sequence ID. No. 17 (containing DRE3) were annealed and end-labeled with gamma ^32P-labeled deoxyadenosine triphosphate as described. Sambrook, J., Fritsch, E. F., Maniatis, T., *Molecular Cloning: A Laboratory Manual/second edition* (Cold Spring Harbor Laboratory Press, 1989). Cytosolic extracts (35 μg of protein) obtained from either human SCC cells or murine Hepa 1c1c7 cells (From James P. Whitlock Jr.) were incubated in the presence of DMSO (−) or 20 nM TCDD (+) for 2 hours at either room temperature (human) or 30° (murine). Nonspecific competitor, poly dIdC, was added and incubated 15 minutes at room temperature. The radiolabeled probe was then added and incubated 15 minutes at room temperature followed by nondenaturing gel electrophoresis. In vitro translated human AhR and ARNT proteins were incubated with either DMSO (−) or 20 nM TCDD (+) for 2 hours at room temperature followed by gel shift assays as described above. In vitro translated mouse AhR and humanARNT proteins were incubated with either DMSO (−) or 20 nM TCDD (+) for 2 hours at 30° followed by electrophoretic mobility shift assays.

AhR (human) alone = target: T1, AhR (human) alone (Homo sapiens, UniProt P35869 SEQ:1-848); experiment: EMSA; no binding without ARNT; settings: label: 32P end-label; 5' TCGA overhangs
T1 chain: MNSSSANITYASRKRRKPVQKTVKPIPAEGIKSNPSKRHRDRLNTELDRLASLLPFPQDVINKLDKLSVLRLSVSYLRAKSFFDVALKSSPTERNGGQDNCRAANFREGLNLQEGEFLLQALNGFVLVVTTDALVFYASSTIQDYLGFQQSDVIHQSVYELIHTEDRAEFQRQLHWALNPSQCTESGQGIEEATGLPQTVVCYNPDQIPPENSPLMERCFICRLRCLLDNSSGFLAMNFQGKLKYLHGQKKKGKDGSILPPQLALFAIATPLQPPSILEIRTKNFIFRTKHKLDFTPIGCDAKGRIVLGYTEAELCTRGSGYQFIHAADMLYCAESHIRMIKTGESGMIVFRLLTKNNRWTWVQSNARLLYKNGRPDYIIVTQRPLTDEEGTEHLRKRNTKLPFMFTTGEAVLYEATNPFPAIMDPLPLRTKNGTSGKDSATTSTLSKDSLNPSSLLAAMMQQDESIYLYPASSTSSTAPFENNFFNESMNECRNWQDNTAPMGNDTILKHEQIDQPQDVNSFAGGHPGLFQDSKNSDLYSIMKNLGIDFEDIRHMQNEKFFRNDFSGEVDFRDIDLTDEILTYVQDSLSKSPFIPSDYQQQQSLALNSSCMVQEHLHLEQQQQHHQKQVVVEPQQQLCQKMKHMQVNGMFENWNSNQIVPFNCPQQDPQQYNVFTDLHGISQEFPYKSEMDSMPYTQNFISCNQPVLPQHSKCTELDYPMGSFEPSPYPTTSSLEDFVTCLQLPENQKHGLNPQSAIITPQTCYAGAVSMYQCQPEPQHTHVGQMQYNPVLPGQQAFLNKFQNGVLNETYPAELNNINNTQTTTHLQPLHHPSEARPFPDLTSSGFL
Experimental: as §1

[2] = target: AhR-ARNT heterodimer (human AhR + human ARNT) (Homo sapiens, UniProt P35869;P27540 P35869:1-848,P27540:1-789); experiment: EMSA; 20 nM TCDD, 2 h room temperature; poly dIdC; ligand dependent; settings: tags: reticulocyte lysate TNT; label: 32P end-label; 5' TCGA overhangs
Experimental: as §1

ARNT alone = ARNT alone (Homo sapiens, UniProt P27540 P27540:1-789); experiment: EMSA; no binding without AhR; settings: label: 32P end-label; 5' TCGA overhangs
Experimental: as §1

Sequence of AhR-ARNT heterodimer (mouse AhR + human ARNT) (P30561 1-805, chain 1 of 2): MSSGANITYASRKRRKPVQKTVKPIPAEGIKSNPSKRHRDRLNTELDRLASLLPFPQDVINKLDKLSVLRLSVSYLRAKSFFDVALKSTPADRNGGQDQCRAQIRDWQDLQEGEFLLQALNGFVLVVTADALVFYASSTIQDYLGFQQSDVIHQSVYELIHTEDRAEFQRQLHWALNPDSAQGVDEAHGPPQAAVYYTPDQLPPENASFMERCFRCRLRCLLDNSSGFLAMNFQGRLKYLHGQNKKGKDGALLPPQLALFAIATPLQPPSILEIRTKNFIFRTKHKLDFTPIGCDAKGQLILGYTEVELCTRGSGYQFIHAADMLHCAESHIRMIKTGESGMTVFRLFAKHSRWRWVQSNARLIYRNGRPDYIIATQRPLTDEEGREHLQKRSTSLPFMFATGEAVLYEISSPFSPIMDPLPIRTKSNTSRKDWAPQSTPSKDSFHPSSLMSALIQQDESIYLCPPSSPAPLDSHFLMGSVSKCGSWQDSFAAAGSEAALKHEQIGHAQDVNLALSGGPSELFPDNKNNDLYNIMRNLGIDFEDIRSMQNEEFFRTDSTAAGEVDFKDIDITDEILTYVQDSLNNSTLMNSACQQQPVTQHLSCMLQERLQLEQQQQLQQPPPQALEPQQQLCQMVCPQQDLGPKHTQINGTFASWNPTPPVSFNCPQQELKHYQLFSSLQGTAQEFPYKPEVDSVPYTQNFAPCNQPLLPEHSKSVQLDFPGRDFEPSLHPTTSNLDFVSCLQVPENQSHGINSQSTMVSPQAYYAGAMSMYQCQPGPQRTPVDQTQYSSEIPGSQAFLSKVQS
Sequence of AhR-ARNT heterodimer (mouse AhR + human ARNT) (P27540 whole entry, chain 2 of 2): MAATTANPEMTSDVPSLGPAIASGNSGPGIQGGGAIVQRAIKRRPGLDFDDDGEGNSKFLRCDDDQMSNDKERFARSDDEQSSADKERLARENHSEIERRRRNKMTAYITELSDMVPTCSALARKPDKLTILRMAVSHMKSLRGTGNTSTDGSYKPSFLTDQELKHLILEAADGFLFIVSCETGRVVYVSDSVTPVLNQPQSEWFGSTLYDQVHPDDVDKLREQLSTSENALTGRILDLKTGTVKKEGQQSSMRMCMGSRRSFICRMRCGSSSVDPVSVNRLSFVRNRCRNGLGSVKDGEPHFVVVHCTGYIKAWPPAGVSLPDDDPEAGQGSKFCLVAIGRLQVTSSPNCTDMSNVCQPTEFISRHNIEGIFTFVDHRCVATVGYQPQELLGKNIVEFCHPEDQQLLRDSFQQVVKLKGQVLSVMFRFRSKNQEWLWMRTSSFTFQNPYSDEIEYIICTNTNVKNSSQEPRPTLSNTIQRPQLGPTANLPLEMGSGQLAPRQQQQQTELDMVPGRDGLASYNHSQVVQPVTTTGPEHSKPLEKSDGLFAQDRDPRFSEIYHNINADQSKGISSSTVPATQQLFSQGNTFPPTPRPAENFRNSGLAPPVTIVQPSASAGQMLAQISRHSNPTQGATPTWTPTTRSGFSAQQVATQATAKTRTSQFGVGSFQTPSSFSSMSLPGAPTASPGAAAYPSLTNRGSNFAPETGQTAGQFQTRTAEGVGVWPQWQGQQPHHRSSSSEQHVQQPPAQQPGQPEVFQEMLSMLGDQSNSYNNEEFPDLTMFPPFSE
Sequence of AhR-ARNT heterodimer (human AhR + human ARNT) (P27540 whole entry, one chain of several): as the sequence (P27540 whole entry, chain 2 of 2) above
Sequence of ARNT alone (P27540 whole entry, one chain of several): as the sequence (P27540 whole entry, chain 2 of 2) above

B1: DRE3 (dsDNA)
DNA 1: TCGAGTAGATCACGCAATGGGCCCAGC
DNA 2: TCGAGCTGGGCCCATTGCGTGATCTAC
B1: binds [1]; no binding (AhR (human) alone); binds [2]. B1: no binding (ARNT alone).
